The target of data set [1] is T1, HIV-1 Rev (HIV-1, UniProt P04618 P04618:1-116). Briefly: footprint; 200 mM KOAc, 50 mM Tris pH 7.7, 1 mM DTT, 5 mM MgCl2; 500 nM Rev. The note with it: tags: American Biotechnologies, Inc. How it is done:
(§1) Chemical Modification of RNA. Chemical modification techniques for nucleic acids are described in general in Ehresmann et al. (1987) Nucleic Acids Research 15:9109-9128. Modification of RNA under native conditions was performed in 200 mM KOAc, 50 mM Tris-HCl pH 7.7, 1 mM EDTA at 37° C. Modification under denaturing conditions was done in 7 M urea, 50 mM Tris-HCl pH 7.7 at 90° C. Concentration of modifying agents and incubation times are as follows: ethylnitrosourea (ENU)-1/5 dilution v/v of ethanol saturated with ENU, native 1-3 hours, denaturing 5 minutes; dimethyl sulfate (DMS)-1/750-fold dilution v/v, native 8 minutes, denaturing 1 minute; kethoxal- 0.5 mg/ml, native 5 minutes, denaturing 2 minutes; carbodiimide (CMCT)-10 mg/ml, native 30 minutes, denaturing 3 minutes; diethyl pyrocarbonate (DEPC)-1/10 dilution v/v, native 10 minutes, denaturing 1 minute.
Modification of RNA in the presence of Rev. “Footprinting” of the Rev ligand, modification of the RNA ligand in the presence of Rev protein, was performed in 200 mM KOAc, 50 mM Tris-Cl pH 7.7, 1 mM DTT, and 5 mM MgCl₂. Concentration of protein was 500 nanomolar, and approximately in 3-fold molar excess over RNA concentration. Modification with protein present was attempted with all modifying agents listed above except ethylnitrosourea (ENU).

Data set [2] deals with T2, HIV-1 reverse transcriptase (HIV-RT) (HIV-1, UniProt P03366;P03366 P03366:600-1159,P03366:600-1039). The data set can be described thus: filter; selected by HIV-RT from mixed 2'-OMe/2'-OH population.
Data set [3] concerns the target T1, HIV-1 Rev. The data set can be described thus: filter; high-affinity ligand; modification interference; 200 mM KOAc, 50 mM Tris pH 7.7, 10 mM DTT, 37 C. As to conditions: tags: American Biotechnologies, Inc. How it is done: as §1
Modification interference of Rev binding. RNAs chemically modified under denaturing conditions were selected for Rev binding through filter partitioning. […]
The extent of modification interference was determined by densitometric scanning of autoradiographs using LKB (ENU) and Molecular Dynamics (DMS, kethoxal, CMCT, and DEPC) laser densitometers. […]

Data set [4] addresses T2, HIV-1 reverse transcriptase (HIV-RT). Briefly: footprint; chemical protection and modification interference. The source says: Selection of modified RNAs by HIV-RT. Binding reactions were as above except that rather than to vary the amount of HIV-RT added to a reaction, the volume of reaction was increased in order to lower concentration. RNAs that were modified under denaturing conditions were selected at concentrations of 20, 4 and 0.8 nanomolar HIV-RT (in volumes of 1, 5 and 25 mls of binding buffer.) The amount of RNA added to each reaction was equivalent for each experiment (approximately 1-5 picomoles). RNA was eluted from filters as described in Tuerk et al. (1990) J. Mol. Biol. 213:749; Tuerk and Gold (1990) Science 249:505-510, and assayed for modified positions. In each experiment a control was included in which unselected RNA was spotted on a filter, eluted and assayed for modified positions in parallel with the selected RNAs. Determinations of variation in chemical modification for selected versus unselected RNAs were made by visual inspection of exposed films of electrophoresed assay products with the following exceptions. The extent of modification interference by ENU was determined by densitometric scanning of films using an LKB laser densitomer. An index of modification interference (M.I.) at each position was calculated as follows:
Assay of chemical modification. […]

T1 sequence (P04618 whole entry, one chain of several): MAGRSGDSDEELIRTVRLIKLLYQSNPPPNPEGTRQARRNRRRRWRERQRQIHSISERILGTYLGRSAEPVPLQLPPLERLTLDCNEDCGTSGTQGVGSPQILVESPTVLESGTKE

B1: extended Rev ligand 6a (ssRNA)
RNA: GGGUGCAUUGAGAAACACGUUUGUGGACUCUGUAUCUAUGAAAGAAUUUUAUAUCUCUAUUGAAAC
As to B1, the binding result with HIV-1 Rev [1] is reported as “binds”.

B2: 2'-methoxy mixed ligand B oligonucleotide (mixed)
RNA: AAAAAUCCGAAGUGCAACGGGAAAAUGCACU
modifications: AAAAA 5' tail deoxy; UCCGA and ACGGGAAAA mixed 2'-OH/2'-OMe; AGUGCA and UGCACU 2'-OMe
Regarding B2, the binding result in data set [2] is “binds”.

In the case of GGGUGCAUUGAGAAACACGUUUGUGGACUCUGUAUCU (ssRNA) [Rev ligand 6a], the binding result with HIV-1 Rev [3] is “binds”.

B3: lengthened ligand B (ssRNA)
RNA: GGUCCGAAGUGCAACGGGAAAAUGCACUAUGAAAGAAUUUUAUAUCUCUAUUGAAAC
With B3, the binding result in data set [4] is “binds”.
